# Laboratory results taken from patent US20210140973A1 (NITTO BOSEKI, published 2021).
# B1: MaI4-08-produced antibody (antibody, IgG1, V domains shown)
# VH: EVQLQQSGPELVKPGTSVKMSCKASGYIFTSYILHWVKQKPGQGLEWIAYINPYNDGTKYKEKFKGKGTLTSDKSSSTAYMELSSLTSEDSAVYYCARSGGGYGNYAWFAYWGPGTLVTVST
# VL: DIQMTQSPSSLSASLGERVSLTCRASQDIGSSLNWLQQEPDGTIKRLIYATSSLDSGVPKRFSGSRSGSDYSLTISSLESEDFVDYYCLQYASYPPTFGAGTKLELK
# notes: Purified on protein G from hybridoma culture supernatant; POD-labelled for the Western blots
# What was measured:
# Test in all cases: latex agglutination inhibition; 3000 mg/dL myeloma protein as free sample against IgG4-sensitized latex, read on the IgG4 calibration curve
# [1] = molecular target: T1, Myeloma human IgG4 (EMD Millipore) (human)
# T1 construct: Bought myeloma protein
# T1 sequence (constant, as listed by the source limits assumed): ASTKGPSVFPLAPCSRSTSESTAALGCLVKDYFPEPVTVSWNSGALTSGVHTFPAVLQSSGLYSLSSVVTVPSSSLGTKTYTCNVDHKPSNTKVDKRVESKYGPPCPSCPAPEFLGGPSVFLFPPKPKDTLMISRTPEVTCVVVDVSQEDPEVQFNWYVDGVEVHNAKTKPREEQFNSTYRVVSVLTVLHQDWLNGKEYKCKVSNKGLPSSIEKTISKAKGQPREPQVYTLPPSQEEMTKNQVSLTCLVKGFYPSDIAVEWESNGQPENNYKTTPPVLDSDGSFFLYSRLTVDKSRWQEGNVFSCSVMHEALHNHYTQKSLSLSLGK
# Procedure: (§1) In a case where the MaI4-08-produced antibody or the MaI4-09-produced antibody was used as an anti-human IgG4 mouse monoclonal antibody in the first reagent, specificity to human IgG4 was evaluated. As a sample, Myeloma human IgG4 solution (EMD Millipore) adjusted to 3000 mg/dL was used. In addition, as control samples, Myeloma human IgG1 solution (EMD Millipore), Myeloma human IgG2 solution (EMD Millipore), and Myeloma human IgG3 solution (Sigma-Aldrich Co. LLC) prepared similarly to the above were used. A saline solution was used as a blank sample. For the measurement of human IgG4 concentrations, 120 μL of the first reagent and 120 μL of the second reagent were reacted with 3 μL of a sample using Hitachi type 7180 automatic analyzer, and change amount of absorbance in the range of photometric points of 18 to 28 (corresponding to 1 minute to 4 minutes after addition of R2) was measured at a main wavelength of 570 nm and a complementary wavelength of 800 nm by a two-point end method (n=2). A calibration curve was created from the results of Table 8 and the human IgG4 concentration in a sample was calculated therefrom.
# [2] = molecular target: T2, Myeloma human IgG1 (EMD Millipore) (human)
# T2 construct: Bought myeloma protein
# T2 sequence (constant, as listed by the source limits assumed): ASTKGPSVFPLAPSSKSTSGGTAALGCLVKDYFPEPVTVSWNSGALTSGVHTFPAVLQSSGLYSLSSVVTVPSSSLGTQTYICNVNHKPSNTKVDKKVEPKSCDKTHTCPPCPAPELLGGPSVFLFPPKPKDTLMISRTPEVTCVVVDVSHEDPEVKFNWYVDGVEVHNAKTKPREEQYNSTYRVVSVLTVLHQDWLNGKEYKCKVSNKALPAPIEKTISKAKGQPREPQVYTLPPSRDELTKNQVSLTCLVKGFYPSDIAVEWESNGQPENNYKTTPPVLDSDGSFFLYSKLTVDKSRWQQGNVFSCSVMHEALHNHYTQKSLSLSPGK
# Procedure: as §1
# [3] = molecular target: T3, Myeloma human IgG2 (EMD Millipore) (human)
# T3 construct: Bought myeloma protein
# T3 sequence (constant, as listed by the source limits assumed): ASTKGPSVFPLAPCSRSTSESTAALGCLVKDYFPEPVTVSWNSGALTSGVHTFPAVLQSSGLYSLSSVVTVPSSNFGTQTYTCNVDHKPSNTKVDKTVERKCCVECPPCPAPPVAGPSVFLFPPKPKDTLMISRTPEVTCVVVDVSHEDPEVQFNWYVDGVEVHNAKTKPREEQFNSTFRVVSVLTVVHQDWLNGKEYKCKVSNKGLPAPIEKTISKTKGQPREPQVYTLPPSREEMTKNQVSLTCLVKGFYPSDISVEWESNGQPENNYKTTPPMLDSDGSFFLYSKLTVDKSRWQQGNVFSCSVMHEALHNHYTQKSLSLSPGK
# Procedure: as §1
# [4] = molecular target: T4, Myeloma human IgG3 (Sigma-Aldrich Co. LLC) (human)
# T4 construct: Bought myeloma protein
# T4 sequence (constant, as listed by the source limits assumed): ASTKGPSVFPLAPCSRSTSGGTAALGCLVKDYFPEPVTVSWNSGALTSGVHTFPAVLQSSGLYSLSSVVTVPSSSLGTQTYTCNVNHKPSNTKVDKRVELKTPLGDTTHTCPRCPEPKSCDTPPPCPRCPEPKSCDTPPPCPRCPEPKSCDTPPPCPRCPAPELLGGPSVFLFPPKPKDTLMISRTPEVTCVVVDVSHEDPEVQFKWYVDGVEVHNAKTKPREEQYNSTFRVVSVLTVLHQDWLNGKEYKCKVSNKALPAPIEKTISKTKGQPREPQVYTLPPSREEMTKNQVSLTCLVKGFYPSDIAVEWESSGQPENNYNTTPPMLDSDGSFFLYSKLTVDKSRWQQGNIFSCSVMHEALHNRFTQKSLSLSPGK
# Procedure: as §1
binder,measurement,setting,value
B1,Measured value (apparent human IgG4 concentration),[1],1090 mg/dL
same,Measured value (apparent human IgG4 concentration),[2],10.1 mg/dL
same,Measured value (apparent human IgG4 concentration),[3],12.8 mg/dL
same,Measured value (apparent human IgG4 concentration),[4],4.1 mg/dL
